Source: the emibetuzumab library of Makowski et al. (2022)

B1: VH:VL chains; a variant is named by its letters at X, in order (parent)
chain 1: QVQLVQSGAEVKKPGASVKVSCKASGYTFTDYXMHWVRQAPGQGLEWMGXVNPNXXXTTYNQKFEGRVTMTTDTSTSTAYMELRSLRSDDTAVYYCARXNXLDXWGQGTTVTVSS
chain 2: DIQMTQSPSSLSASVGDRVTITCSVSSSVSSIYLHWYQQKPGKAPKLLIYSTSNLASGVPSRFSGSGSGTDFTLTISSLQPEDFATYYCQVYSGYPLTFGGGTKVEIK

Variants of: B1
Assay: yeast display scFab, FACS + sequencing
How it was run: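 For the non-specific binding call, a heavy-chain CDR mutant scFab library on the yeast surface was FACS-sorted and samples from two replicates were deep sequenced. Cells were labelled with anti-Myc and either biotinylated ovalbumin (260 μg/mL in PBSB, 3 h, room temperature) or soluble membrane proteins (130 μg/mL, 20 min on ice), with gates on the top 25% and bottom 10% of binders. With membrane protein and ovalbumin samples pooled, a sequence in ≥3 of 4 positive samples and no negatives was scored positive, and the converse rule scored negatives.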
For FRTRGAAA, the non-specific binding call was “binds”.
For STAEDDWV, the non-specific binding call was “no binding”.
For YTEKTFSD, the non-specific binding call was “binds”.
In the case of VTEEGDWV, the non-specific binding call is reported as “no binding”.
For ATGEGDWS, the non-specific binding call was “no binding”.
For VTGEGALV, the non-specific binding call was “no binding”.
For YTGEGSWV, the non-specific binding call was “no binding”.
For FTETGSVD, the non-specific binding call was “no binding”.
In the case of ATGEDDVY, the non-specific binding call is reported as “no binding”.
For DTATADWA, the non-specific binding call was “no binding”.
With FRTRDSAA the non-specific binding call was “binds”.
In the case of DTGGDAGV, the non-specific binding call is reported as “no binding”.
In the case of DTAGDAVV, the non-specific binding call is reported as “no binding”.
With ATGEGDGV the non-specific binding call was “no binding”.
For YRTRSAWD, the non-specific binding call was “binds”.
For VRTRGYLA, the non-specific binding call was “binds”.
For YTGEDDVY, the non-specific binding call was “no binding”.
In the case of DTERDDAV, the non-specific binding call is reported as “no binding”.
In the case of VRTRGALS, the non-specific binding call is reported as “binds”.
With ATGGAALD the non-specific binding call was “no binding”.
In the case of VTGGDALA, the non-specific binding call is reported as “no binding”.
With YRTRDAWV the non-specific binding call was “binds”.
For YTGGADAV, the non-specific binding call was “no binding”.
With YTAGSDWY the non-specific binding call was “no binding”.
In the case of YRTRGALS, the non-specific binding call is reported as “binds”.
For YRTRGALA, the non-specific binding call was “binds”.
In the case of DRTTNAGD, the non-specific binding call is reported as “no binding”.
For YRTRGYAV, the non-specific binding call was “binds”.
For FRTRGAVV, the non-specific binding call was “binds”.
For FRTRGSSD, the non-specific binding call was “binds”.
With YRTRGAAA the non-specific binding call was “binds”.
In the case of YTGEDAVA, the non-specific binding call is reported as “no binding”.
In the case of VTAGDDAV, the non-specific binding call is reported as “no binding”.
With VTEGGSVD the non-specific binding call was “binds”.
In the case of DTGANDWV, the non-specific binding call is reported as “no binding”.
For VTAESSSF, the non-specific binding call was “no binding”.
In the case of YRTRGSGY, the non-specific binding call is reported as “binds”.
With YRTRGSGF the non-specific binding call was “binds”.
With VTATADWA the non-specific binding call was “no binding”.
In the case of VTEEGSWV, the non-specific binding call is reported as “no binding”.
In the case of YTETGDSV, the non-specific binding call is reported as “no binding”.
In the case of YTARGVSF, the non-specific binding call is reported as “binds”.
With YTARGSAA the non-specific binding call was “binds”.
With FTARSAGF the non-specific binding call was “binds”.
In the case of YRTRSSGA, the non-specific binding call is reported as “binds”.
For YTEEGDWV, the non-specific binding call was “no binding”.
In the case of VRTRGAVD, the non-specific binding call is reported as “binds”.
In the case of STATADVA, the non-specific binding call is reported as “no binding”.
For FTGEAAGD, the non-specific binding call was “no binding”.
For VTGESAAV, the non-specific binding call was “no binding”.
With YRTRSSVS the non-specific binding call was “binds”.
In the case of VTAGDDGV, the non-specific binding call is reported as “no binding”.
In the case of VTAGDDGS, the non-specific binding call is reported as “no binding”.
In the case of FRTRDALD, the non-specific binding call is reported as “binds”.
With YTEGDDWY the non-specific binding call was “no binding”.
For VTEGDDVF, the non-specific binding call was “no binding”.
With FRTRDSSS the non-specific binding call was “binds”.
For YRTRSAVY, the non-specific binding call was “binds”.
In the case of YRTRSAVV, the non-specific binding call is reported as “binds”.
In the case of FRTRGVGA, the non-specific binding call is reported as “binds”.
For DTEGDAGD, the non-specific binding call was “no binding”.
For YRTRDSAS, the non-specific binding call was “no binding”.
For STAEDFVV, the non-specific binding call was “no binding”.
In the case of DTGEDDVY, the non-specific binding call is reported as “no binding”.
In the case of YRTRSAGV, the non-specific binding call is reported as “binds”.
With YRTRSAGD the non-specific binding call was “binds”.
For YRTRSAGA, the non-specific binding call was “binds”.
In the case of VTERGSLD, the non-specific binding call is reported as “no binding”.
For ATGANAAV, the non-specific binding call was “no binding”.
For DTEGGSAS, the non-specific binding call was “no binding”.
For YTAGSDVA, the non-specific binding call was “no binding”.
In the case of YRTKGAVY, the non-specific binding call is reported as “binds”.
In the case of VTGEDDAA, the non-specific binding call is reported as “no binding”.
For VTGEDDAV, the non-specific binding call was “no binding”.
For FTAGGAAD, the non-specific binding call was “binds”.
With YRTRDVGF the non-specific binding call was “binds”.
In the case of VTGESDWY, the non-specific binding call is reported as “no binding”.
In the case of YRTRGSWD, the non-specific binding call is reported as “binds”.
With STAESSSF the non-specific binding call was “no binding”.
In the case of VTEGGALA, the non-specific binding call is reported as “no binding”.
For VTGEDDVD, the non-specific binding call was “no binding”.
In the case of VTGEDDVA, the non-specific binding call is reported as “no binding”.
With VTGEDDVV the non-specific binding call was “no binding”.
In the case of FRTRDVGF, the non-specific binding call is reported as “binds”.
For YRTRGAGA, the non-specific binding call was “binds”.
In the case of YRTRGAGV, the non-specific binding call is reported as “binds”.
With YRTRGAGD the non-specific binding call was “binds”.
In the case of FTEEGAGD, the non-specific binding call is reported as “no binding”.
With DTEEGDWV the non-specific binding call was “no binding”.
In the case of VTGEADAS, the non-specific binding call is reported as “no binding”.
For VTAGSDAV, the non-specific binding call was “no binding”.
In the case of YRTKGSGV, the non-specific binding call is reported as “binds”.
With VTEGGDVY the non-specific binding call was “no binding”.
With VTEGGDVA the non-specific binding call was “no binding”.
With VTGEDSLA the non-specific binding call was “no binding”.
In the case of VTGEDSLD, the non-specific binding call is reported as “no binding”.
With VTGEDSLV the non-specific binding call was “no binding”.
In the case of STAESDGA, the non-specific binding call is reported as “no binding”.
In the case of YRTRDAGY, the non-specific binding call is reported as “no binding”.
With VRTRGSGV the non-specific binding call was “binds”.
With YTEETDGF the non-specific binding call was “binds”.
With VRTRGSSS the non-specific binding call was “binds”.
In the case of STEGDAGA, the non-specific binding call is reported as “no binding”.
With ARTRTAWY the non-specific binding call was “binds”.
In the case of YTERAAWA, the non-specific binding call is reported as “no binding”.
For STAGSASD, the non-specific binding call was “no binding”.
For STEEGDWV, the non-specific binding call was “no binding”.
For FTGGAAGD, the non-specific binding call was “no binding”.
With VTETGSLV the non-specific binding call was “no binding”.
With FRTRSSLA the non-specific binding call was “binds”.
With YRTRDALV the non-specific binding call was “no binding”.
For ATATADWA, the non-specific binding call was “no binding”.
With FRTKGAWV the non-specific binding call was “binds”.
For VTGEDSSD, the non-specific binding call was “no binding”.
In the case of VRTRASVD, the non-specific binding call is reported as “binds”.
